Legend:
[1] = target: T1, human PD-L1-Fc fusion protein (Sino Biological Cat #10084-H02H) (human, UniProt Q9NZQ7 19-239); test: SPR (Biacore T200), human PD-L1-Fc immobilized (300 RU), IgG in solution
T1 construct: bought; not shown: Fc part of the bought fusion

[2] = target: T2, human CTLA4 expressed on HEK293F cells (human, UniProt P16410 36-223); test: flow cytometry on transfected HEK293F cells
T2 construct: whole, on cells

[3] = target: T3, human TIM3 expressed on HEK293F cells (human, UniProt Q8TDQ0 22-301); test: flow cytometry on transfected HEK293F cells
T3 construct: whole, on cells

[4] = target: T4, human LAG3 expressed on HEK293F cells (human, UniProt P18627 23-525); test: flow cytometry on transfected HEK293F cells
T4 construct: whole, on cells
T4 sequence (looked up): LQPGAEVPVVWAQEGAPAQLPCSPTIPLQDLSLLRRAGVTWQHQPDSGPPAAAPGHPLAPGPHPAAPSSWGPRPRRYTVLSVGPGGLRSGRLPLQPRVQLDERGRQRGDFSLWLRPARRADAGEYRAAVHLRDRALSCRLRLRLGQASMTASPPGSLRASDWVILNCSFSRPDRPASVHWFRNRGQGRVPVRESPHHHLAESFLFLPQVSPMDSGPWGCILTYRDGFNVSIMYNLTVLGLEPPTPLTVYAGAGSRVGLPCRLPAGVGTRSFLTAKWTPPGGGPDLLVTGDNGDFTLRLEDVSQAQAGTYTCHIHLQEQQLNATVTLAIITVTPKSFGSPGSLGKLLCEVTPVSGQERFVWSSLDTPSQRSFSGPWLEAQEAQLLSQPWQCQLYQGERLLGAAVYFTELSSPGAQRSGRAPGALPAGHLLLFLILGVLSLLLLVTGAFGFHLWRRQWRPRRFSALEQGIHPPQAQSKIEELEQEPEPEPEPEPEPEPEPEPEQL

[5] = target: T5, human B7-H3 expressed on HEK293F cells (human, UniProt Q5ZPR3 29-534); test: flow cytometry on transfected HEK293F cells
T5 construct: whole, on cells
T5 sequence (looked up): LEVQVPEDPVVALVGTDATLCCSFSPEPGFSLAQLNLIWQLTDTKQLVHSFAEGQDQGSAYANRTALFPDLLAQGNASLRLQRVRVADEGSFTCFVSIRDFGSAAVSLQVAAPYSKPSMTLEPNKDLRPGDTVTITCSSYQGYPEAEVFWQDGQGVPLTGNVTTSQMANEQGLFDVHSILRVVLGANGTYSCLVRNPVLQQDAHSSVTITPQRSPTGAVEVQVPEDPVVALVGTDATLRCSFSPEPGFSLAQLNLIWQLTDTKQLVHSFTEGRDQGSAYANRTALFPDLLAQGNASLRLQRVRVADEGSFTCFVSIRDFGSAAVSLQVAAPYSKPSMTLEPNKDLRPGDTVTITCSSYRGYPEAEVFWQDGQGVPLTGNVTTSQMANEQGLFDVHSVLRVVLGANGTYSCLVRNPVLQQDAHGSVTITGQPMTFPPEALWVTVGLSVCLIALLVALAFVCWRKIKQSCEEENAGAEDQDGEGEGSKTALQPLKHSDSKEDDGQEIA

[6] = target: T6, human PD1 expressed on HEK293F cells (human, UniProt Q15116 25-288); test: flow cytometry on transfected HEK293F cells
T6 construct: whole, on cells

[7] = target: T7, rat PD-L1-Fc fusion protein (Sino Biological cat #80450-R08H) (rat); test: SPR (Biacore T200), PD-L1-Fc immobilized (about 500 RU), IgG in solution
T7 construct: text calls all four immobilized proteins PD-L1-Fc fusion proteins

[8] = target: T8, rhesus PD-L1-Fc fusion protein (Sino Biological cat #90251-C02H) (rhesus, UniProt F6PJN1 19-239); test: as above
T8 construct: not shown: Fc part

[9] = target: T9, mouse PD-L1-Fc fusion protein (mouse, UniProt Q9EP73 19-238, limits assumed); test: as above
T9 construct: not shown: Fc part

[10] = target: T1, human PD-L1-Fc fusion protein (Sino …); test: as above
[11] = target: T1, human PD-L1-Fc fusion protein (Sino …); test: SPR (Biacore T200), human PD-L1-Fc immobilized, IgG in solution
[12] = target: T1, human PD-L1-Fc fusion protein (Sino …); test: competition ELISA, PD1-Fc (1 ug/mL) coated, biotinylated PD-L1-Fc mixed with antibody, HRP neutravidin; blocked ligand PD1-Fc
[13] = target: T2, human CTLA4 expressed on HEK293F cells; test: flow cytometry, HEK293F cells transiently expressing the target, 100 nM antibody, PE anti-human Fc; Mean (PE-A against FITC-A, GFP surrogate)
[14] = target: T3, human TIM3 expressed on HEK293F cells; test: as above
[15] = target: T4, human LAG3 expressed on HEK293F cells; test: as above

T1 sequence (Q9NZQ7 19-239 limits assumed): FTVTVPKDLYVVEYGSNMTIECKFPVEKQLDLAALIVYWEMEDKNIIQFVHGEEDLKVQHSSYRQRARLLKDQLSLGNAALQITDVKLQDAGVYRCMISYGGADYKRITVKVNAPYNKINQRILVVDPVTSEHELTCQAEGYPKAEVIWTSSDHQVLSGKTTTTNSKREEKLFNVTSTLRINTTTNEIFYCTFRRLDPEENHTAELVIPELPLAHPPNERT
T9 sequence (Q9EP73 19-238 limits assumed): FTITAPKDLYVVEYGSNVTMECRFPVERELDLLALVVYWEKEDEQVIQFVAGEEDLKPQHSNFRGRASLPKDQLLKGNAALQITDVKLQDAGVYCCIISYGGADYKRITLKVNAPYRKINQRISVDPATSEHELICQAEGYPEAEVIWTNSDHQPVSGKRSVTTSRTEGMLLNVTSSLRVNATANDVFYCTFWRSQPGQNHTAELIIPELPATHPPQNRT
T2 sequence (P16410 36-223): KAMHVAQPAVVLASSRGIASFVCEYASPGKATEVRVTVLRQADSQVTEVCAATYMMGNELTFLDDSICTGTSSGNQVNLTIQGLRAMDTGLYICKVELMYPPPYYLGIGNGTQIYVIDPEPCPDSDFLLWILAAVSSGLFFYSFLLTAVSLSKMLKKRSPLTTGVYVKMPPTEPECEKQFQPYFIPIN
T6 sequence (Q15116 25-288): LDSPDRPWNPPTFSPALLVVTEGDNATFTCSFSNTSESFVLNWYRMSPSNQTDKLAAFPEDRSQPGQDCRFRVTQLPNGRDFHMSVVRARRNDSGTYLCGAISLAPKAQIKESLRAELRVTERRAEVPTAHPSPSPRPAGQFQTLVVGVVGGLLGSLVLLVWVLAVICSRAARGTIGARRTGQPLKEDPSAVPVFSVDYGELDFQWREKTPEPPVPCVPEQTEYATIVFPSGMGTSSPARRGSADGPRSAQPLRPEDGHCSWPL

B1: TY21421 (antibody, V domains shown)
VH: EVQLVESGGGLVQPGGSLRLSCAASGYSISSGYYWGWIRQAPGKGLEWIGIIYPSGGGTNYAQKFQGRVTISRDNSKNTLYLQLNSLRAEDTAVYYCARGGGLGFDYWGQGTLVTVSS
VL: DIQLTQSPSSLSASVGDRVTITCRASQSIPSFLNWYQQKPGKAPKLLIYAASSLQSGVPSRFSGSGSGTDFTLTISSLQPEDFATYYCQHYISWPRQFTFGQGTKVEIKR
notes: IgG1 (wild type) made from Fab B15041, from HEK293F cells
Question: What does the source list for B1?
Answer: Kd [1]: 8.63 pM; koff [1]: 5.73e-05 s⁻¹; kon [1]: 6.64e+06 M⁻¹ s⁻¹; binding result [2]: no binding (tested: 100 nM); binding result [3]: no binding (tested: 100 nM); binding result [4]: no binding (tested: 100 nM); binding result [5]: no binding (tested: 100 nM); binding result [6]: no binding (tested: 100 nM); Kd [7]: 20.9 pM; koff [7]: 0.000106 s⁻¹; kon [7]: 5.07e+06 M⁻¹ s⁻¹; Kd [8]: 1.85 pM; koff [8]: 7.27e-06 s⁻¹; kon [8]: 3.93e+06 M⁻¹ s⁻¹; Kd [9]: 1.86 pM; koff [9]: 2.06e-05 s⁻¹; kon [9]: 1.11e+07 M⁻¹ s⁻¹; Kd [10]: 6.19 pM; koff [10]: 2.97e-05 s⁻¹; kon [10]: 4.8e+06 M⁻¹ s⁻¹; Kd [11]: < 10 pM; IC50 (read off the curve) [12]: ~6000 pM; Mean [13]: 4900; Mean [14]: 8100; Mean [15]: 5850
